US20230086871A1 (UNIVERSITY OF FREIBURG, published 2023)

Biological target: the molecule itself
Experiment: negative-stain transmission electron microscopy and 2D classification of purified His-SYMREM1 (self-assembly)

B1: His-SYMREM1 (purified, recombinant Medicago truncatula SYMREM1 protein) (other)
chain: MEESKNKQLELVDTLTPLPQSESEPREFSYFLEEKEPGNEGTSSSVVKQERVVSDHATSSVDQTTAAGTDTKDSVDRDAVLARVESQKRLALIKAWEENEKTKVENRAYKMQSAVDLWEDDKKASIEAKFKGIEVKLDRKKSEYVEVMQNKIGEIHKSAEEKKAMIEAQKGEEILKVEETAAKFRTRGYQPRRLLGCFSGLRFFS
notes: also called Symbiotic Remorin 1; recombinant SYMREM1; not shown: N-terminal His tag and linker from the pDEST17 Gateway vector
- binding result: binds
